# According to article PMC8047169:
# Legend:
# [1] = target: molybdenum-iron protein (MoFeP) of Gluconacetobacter diazotrophicus Mo-nitrogenase (Gluconacetobacter diazotrophicus)
# [2] = target: molybdenum-iron protein (MoFeP) of Gluconacetobacter diazotrophicus Mo-nitrogenase (Gluconacetobacter diazotrophicus); remark: listed apart in the source
binder,measurement,setting,value
"His-CowN (Gluconacetobacter diazotrophicus CowN, His-tagged, refolded, monomeric fraction) (natural protein) MTEQIDRYVSFRNVEWERRTAEVFALLQPHFDGSTSPFWDYFLRQRVIAHAQGLDDLRVLHNFLPTLKDLLEELDDERTLSRLEELEVLCM","nitrogenase C2H2 reduction activity under 0.1 atm CO with 2 μM CowN against no CowN (0.2 μM MoFeP, 2 μM FeP)",[1],9 fold
same,"KD^app from a hyperbolic fit of nitrogenase C2H2 reduction activity against CowN concentration under 0.001 atm CO (MoFeP with FeP, turnover conditions)",[2],0.4 µM
same,"KD^app from a hyperbolic fit of nitrogenase C2H2 reduction activity against CowN concentration under 0.1 atm CO (MoFeP with FeP, turnover conditions)",[2],1.08 µM
